# In article PMC3260337:
# Tests used:
# [1] = molecular target: AS15[H33R] monobody, displayed on yeast; assay: flow cytometry on cells
# [2] = molecular target: AS27[Y33R] monobody, displayed on yeast; assay: flow cytometry on cells
substance,measurement,setting,value
"Abl SH2 domain, biotinylated (for yeast display measurements) (from UniProt P00519 112-232) (domain or fragment)",fold reduction of affinity against AS15,[1],4 times
same,fold reduction of affinity against AS27,[2],8 times
